Data from PMC9851377.

Target: CD3 on T lymphocytes (human (endogenous in T lymphocytes from PBMCs)) (UniProt P07766)
Assay: FACS; dimer; binding to T lymphocytes

UniProt P07766, sequence (P07766 23-207): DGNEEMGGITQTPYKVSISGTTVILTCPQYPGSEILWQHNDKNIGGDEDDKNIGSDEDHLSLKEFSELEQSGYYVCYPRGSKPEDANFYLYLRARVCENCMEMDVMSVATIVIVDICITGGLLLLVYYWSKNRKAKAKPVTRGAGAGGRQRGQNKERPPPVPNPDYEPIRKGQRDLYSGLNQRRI

## dimeric γδ_(ECTO)-αCD3 (AJ8 TCR, 3(G4S) linker), purified dimer fraction (from UniProt Q99603)
  EC50: 0.17 µg/mL
